The test system of the data set is Escherichia coli TOP10. Description: shrunken log2 fold change of peptide-encoding DNA abundance (4.5 h post-induction vs induction); higher = less antimicrobial activity (less host growth inhibition). The note with it: time post-induction: 4.5 h; library: site-saturation at positions 5, 18, 19, 20.
Consider RRIRSRPPRLPRPRPRPTLDPRP, for which the “shrunken log2 fold change” value stood at 0.47.
With RRIRERPPRLPRPRPRPNGWPRP, the “shrunken log2 fold change” value is -0.00266.
With RRIRFRPPRLPRPRPRPNQCPRP the figure was -0.511; with RRIRQRPPRLPRPRPRPGCIPRP, -0.306.
With RRIRNRPPRLPRPRPRPWMMPRP the figure was -0.594.
Next, RRIRMRPPRLPRPRPRPIICPRP: -0.00127; RRIRVRPPRLPRPRPRPIWKPRP: -0.168; RRIRHRPPRLPRPRPRPICAPRP: -0.0362.
In the case of RRIRFRPPRLPRPRPRPLWKPRP, the “shrunken log2 fold change” value was -0.0606.
Next, RRIRPRPPRLPRPRPRPMATPRP: 0.323; RRIRSRPPRLPRPRPRPQVMPRP: -0.193.
As to RRIRWRPPRLPRPRPRPLWDPRP, the “shrunken log2 fold change” value amounted to 0.235.
With RRIRLRPPRLPRPRPRPGFAPRP the figure was 0.36; with RRIRCRPPRLPRPRPRPYQKPRP, -0.0372; with RRIRHRPPRLPRPRPRPCFPPRP, -0.517.
With RRIRFRPPRLPRPRPRPMGIPRP the figure was -0.23; with RRIRDRPPRLPRPRPRPMMCPRP, -0.131.
With RRIRQRPPRLPRPRPRPARPPRP the figure was 0.516.
As to RRIRKRPPRLPRPRPRPPTVPRP, the “shrunken log2 fold change” value turned out to be 0.266.
Next, RRIRCRPPRLPRPRPRPNRHPRP: -0.388; RRIRWRPPRLPRPRPRPGECPRP: 0.00474.
Next, RRIRERPPRLPRPRPRPCQNPRP: -0.0177; RRIRHRPPRLPRPRPRPNAKPRP: -0.117; RRIRMRPPRLPRPRPRPLDMPRP: 0.167.
With RRIRKRPPRLPRPRPRPHWRPRP the figure was 0.3.
Take RRIRHRPPRLPRPRPRPYPMPRP: the “shrunken log2 fold change” value was -0.2.
Consider RRIRWRPPRLPRPRPRPWWGPRP, for which the “shrunken log2 fold change” value stood at 0.0568.
With RRIRVRPPRLPRPRPRPAFTPRP the figure was -0.124; with RRIRNRPPRLPRPRPRPPCGPRP, 0.317.
With RRIRQRPPRLPRPRPRPPLQPRP the figure was 0.218; with RRIRARPPRLPRPRPRPSPCPRP, 0.0808.
With RRIRLRPPRLPRPRPRPHHIPRP the figure was -0.343; with RRIRIRPPRLPRPRPRPIVQPRP, -0.158; with RRIRFRPPRLPRPRPRPAIHPRP, -0.478.
With RRIRQRPPRLPRPRPRPMDEPRP, the “shrunken log2 fold change” value worked out at 0.0268.
Next, RRIRPRPPRLPRPRPRPKHWPRP: 0.273; RRIRYRPPRLPRPRPRPLHPPRP: -0.0607.
With RRIRIRPPRLPRPRPRPIGYPRP the figure was -0.085; with RRIRERPPRLPRPRPRPISWPRP, -0.246.
With RRIRHRPPRLPRPRPRPINTPRP the figure was -0.249; with RRIRWRPPRLPRPRPRPAAGPRP, 0.545; with RRIRYRPPRLPRPRPRPCCWPRP, 0.0911.
RRIRIRPPRLPRPRPRPRETPRP: the “shrunken log2 fold change” value was found to be 0.0956.
Next, RRIRYRPPRLPRPRPRPEPSPRP: -0.0733; RRIRHRPPRLPRPRPRPELWPRP: 0.376.
With RRIRGRPPRLPRPRPRPWKAPRP the figure was 0.0375; with RRIRSRPPRLPRPRPRPRMAPRP, 1.31; with RRIRARPPRLPRPRPRPLTYPRP, 0.0247.
With RRIRIRPPRLPRPRPRPIQMPRP the figure was -0.203; with RRIRHRPPRLPRPRPRPDWCPRP, -0.00101.
Turning to RRIRMRPPRLPRPRPRPEYIPRP, the “shrunken log2 fold change” value is 0.0145.
Take RRIRNRPPRLPRPRPRPHMTPRP: the “shrunken log2 fold change” value is 0.0432.
For the sequence RRIRDRPPRLPRPRPRPLGNPRP, the “shrunken log2 fold change” value was -0.0332.
With RRIRDRPPRLPRPRPRPRRKPRP the figure was 0.233.
Turning to RRIRFRPPRLPRPRPRPMHAPRP, the “shrunken log2 fold change” value is 0.0753.
With RRIRRRPPRLPRPRPRPFPRPRP the figure was 0.272.
With RRIRNRPPRLPRPRPRPGGMPRP the figure was -0.0941.
With RRIRFRPPRLPRPRPRPAVCPRP the figure was 0.925.
RRIRFRPPRLPRPRPRPHLQPRP: the “shrunken log2 fold change” value was -0.144.
RRIRIRPPRLPRPRPRPNYYPRP: the “shrunken log2 fold change” value is -1.07.
Next, RRIRHRPPRLPRPRPRPCSLPRP: -0.115.
Next, RRIRPRPPRLPRPRPRPLYVPRP: -0.433; RRIRHRPPRLPRPRPRPWFAPRP: -0.217.
For RRIRARPPRLPRPRPRPPLGPRP, the “shrunken log2 fold change” value is 0.671.
With RRIRWRPPRLPRPRPRPSWQPRP the figure was -0.0268.
With RRIRVRPPRLPRPRPRPSMVPRP the figure was -0.475.
Next, RRIRCRPPRLPRPRPRPMTPPRP: 0.377; RRIRVRPPRLPRPRPRPRETPRP: 0.513.
For the sequence RRIRVRPPRLPRPRPRPTHYPRP, the “shrunken log2 fold change” value was -0.0832.
In the case of RRIRHRPPRLPRPRPRPNFCPRP, the “shrunken log2 fold change” value is -0.0463.
Regarding RRIRRRPPRLPRPRPRPNYEPRP, the “shrunken log2 fold change” value turned out to be 0.0979.
Next, RRIRRRPPRLPRPRPRPFYPPRP: -0.189; RRIRCRPPRLPRPRPRPPYKPRP: -0.511; RRIRERPPRLPRPRPRPMFGPRP: 0.0215.
For RRIRKRPPRLPRPRPRPEGKPRP, the “shrunken log2 fold change” value was 0.201.
With RRIRSRPPRLPRPRPRPICLPRP the figure was 0.259.
Next, RRIRRRPPRLPRPRPRPGEIPRP: 0.321.
Next, RRIRNRPPRLPRPRPRPELSPRP: 0.0211; RRIRGRPPRLPRPRPRPIVAPRP: 0.727.
RRIRQRPPRLPRPRPRPQCTPRP: the “shrunken log2 fold change” value is -0.0165.
With RRIRLRPPRLPRPRPRPCFTPRP the figure was -0.497.
Next, RRIRIRPPRLPRPRPRPHMSPRP: -0.109.
With RRIRLRPPRLPRPRPRPLMGPRP the figure was -0.0491; with RRIRLRPPRLPRPRPRPTCAPRP, 0.314.
As to RRIRFRPPRLPRPRPRPGEAPRP, the “shrunken log2 fold change” value amounted to 0.416.
For RRIRHRPPRLPRPRPRPVNWPRP, the “shrunken log2 fold change” value was 0.18.
With RRIRDRPPRLPRPRPRPTGCPRP the figure was 0.247; with RRIRNRPPRLPRPRPRPGRVPRP, 0.296; with RRIRCRPPRLPRPRPRPPAWPRP, 0.692.
Next, RRIRLRPPRLPRPRPRPQELPRP: -0.0432; RRIRNRPPRLPRPRPRPCSSPRP: -0.0135; RRIRHRPPRLPRPRPRPIKPPRP: -0.236.
With RRIRWRPPRLPRPRPRPCSLPRP the figure was -0.0592.
Take RRIRIRPPRLPRPRPRPCRWPRP: the “shrunken log2 fold change” value worked out at 0.0527.
With RRIRMRPPRLPRPRPRPDELPRP the figure was 2.12.
Next, RRIRVRPPRLPRPRPRPGQGPRP: 0.065; RRIRWRPPRLPRPRPRPGSYPRP: -0.0955.
Next, RRIRFRPPRLPRPRPRPAHWPRP: 0.539; RRIRTRPPRLPRPRPRPGVMPRP: 0.0539; RRIRRRPPRLPRPRPRPSYLPRP: -0.36.
With RRIRTRPPRLPRPRPRPSGDPRP, the “shrunken log2 fold change” value is -0.221.
With RRIRWRPPRLPRPRPRPSKAPRP the figure was -0.287; with RRIRMRPPRLPRPRPRPTSTPRP, 0.16.
Next, RRIRSRPPRLPRPRPRPVGYPRP: 0.093.
For the sequence RRIRLRPPRLPRPRPRPRQRPRP, the “shrunken log2 fold change” value is 0.892.
On to RRIRSRPPRLPRPRPRPVLPPRP, for which the “shrunken log2 fold change” value is -0.167.
Next, RRIRERPPRLPRPRPRPNQKPRP: -0.108.
With RRIRKRPPRLPRPRPRPKIFPRP the figure was 0.0692.
Next, RRIRTRPPRLPRPRPRPLRIPRP: 0.00602.
RRIRHRPPRLPRPRPRPTMRPRP: the “shrunken log2 fold change” value came to 0.402.
With RRIRYRPPRLPRPRPRPMDFPRP the figure was -0.205; with RRIRKRPPRLPRPRPRPQCGPRP, 0.0718; with RRIRLRPPRLPRPRPRPESSPRP, -0.015.
With RRIRPRPPRLPRPRPRPNLAPRP the figure was 0.294; with RRIRGRPPRLPRPRPRPPLCPRP, 0.616.
RRIRDRPPRLPRPRPRPINIPRP: the “shrunken log2 fold change” value is -0.282.
Next, RRIRCRPPRLPRPRPRPGSKPRP: -0.179.
With RRIRIRPPRLPRPRPRPRDGPRP the figure was 0.575; with RRIRGRPPRLPRPRPRPMFPPRP, 0.193.
With RRIRSRPPRLPRPRPRPSCAPRP the figure was 0.0589.
On to RRIRPRPPRLPRPRPRPMRGPRP, for which the “shrunken log2 fold change” value amounted to 0.887.
With RRIRSRPPRLPRPRPRPITQPRP the figure was -0.0534; with RRIRTRPPRLPRPRPRPLTKPRP, 0.0652; with RRIRTRPPRLPRPRPRPEMGPRP, -0.0368.
Next, RRIRVRPPRLPRPRPRPGWNPRP: -0.0405.
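Further: peptides expressed intracellularly from a pBAD plasmid library in pooled LB shake-flask culture, induced with 0.3% L-arabinose, DNA abundance read by NGS, three biological replicates, DESeq2 with apeglm shrinkage.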
